This is an account of results in publication PMC8442874.

The target of this assay is Soc-SpyCatcher fusion protein (displayed on T4 phage: T4-SpyCatcher phage) (bacteriophage T4). The assay can be described thus: co-sedimentation.

Substance “SUMO-RBD-SpyTag fusion protein, refolded (from UniProt P0DTC2 319-545) (domain or fragment)” gave a copies per capsid (rRBD molecules per capsid) of 300.
